The record followed here is publication PMC3077247 (EMBO Reports, 2011).

Experiment [1] deals with ubiquitin (monomeric) (UniProt P0CG48 1-76). In words: fluorescence polarisation. (In general: Fluorescence polarisation rises when a labelled molecule tumbles more slowly, as on binding a larger partner.)
In experiment [2] the target is T1, HECT domain of Nedd4, Y605A (as used for SPR) (UniProt P46934-4, Y605A).
T1 sequence: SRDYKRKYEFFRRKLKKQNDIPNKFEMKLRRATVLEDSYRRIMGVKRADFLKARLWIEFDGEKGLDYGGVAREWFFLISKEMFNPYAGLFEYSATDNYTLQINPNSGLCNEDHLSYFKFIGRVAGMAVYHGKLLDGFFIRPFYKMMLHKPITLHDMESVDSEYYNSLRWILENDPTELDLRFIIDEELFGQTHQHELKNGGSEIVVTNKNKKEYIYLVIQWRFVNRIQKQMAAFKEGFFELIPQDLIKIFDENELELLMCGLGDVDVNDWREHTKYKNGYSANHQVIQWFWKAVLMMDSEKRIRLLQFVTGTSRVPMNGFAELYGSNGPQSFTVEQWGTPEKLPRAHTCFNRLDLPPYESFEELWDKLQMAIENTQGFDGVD
In words: SPR. In general terms: Surface plasmon resonance follows binding to a sensor surface in real time, without labels.

Experiment [3] addresses T2, HECT domain of Nedd4, F707A (as used for fluorescence polarisation and SPR) (UniProt P46934-4, F707A).
T2 sequence: T1 sequence with A87Y, F189A
As to the kind of experiment: SPR.

Experiment [4] addresses T3, GST-fusion of the HECT domain of Nedd4, wild type (UniProt P46934-4).
T3 sequence: T1 sequence with A87Y
In words: pull-down.

Positions count from the first letter of the chain named.

B1: HECT domain of Nedd4, wild type (as used for crystals, fluorescence polarisation, SPR and supplementary Fig S1) (domain or fragment)
chain: T1 sequence with A87Y
By Kd is commonly meant a measure of binding affinity in units of concentration. Molecule B1 gave a dissociation constant (Kd) in experiment [1] of 11 µM.

B2: E2 enzyme Ube2D3 (apo form) (enzyme)
chain: not shown
As for B2, the binding result in experiment [2], in experiment [3] and in experiment [4] was “binds” each time.
